Measured values taken from patent US20260274955A1 (JANUX THERAPEUTICS, published 2026).

molecular target: T1, anti-CD28 Fab (SEQ ID NOs: 202, 203); assay: phage binding ELISA on captured biotinylated Fab;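 also: clonal phage supernatants added to wells preincubated with CD28 antigen or blocking buffer only, bound phage detected by ELISA with horseradish-conjugated anti-M13 antibody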
T1 construct: biotinylated and captured on neutravidin coated plates in the phage ELISA
T1 sequence (VH, as listed by the source, chain 1 of 2): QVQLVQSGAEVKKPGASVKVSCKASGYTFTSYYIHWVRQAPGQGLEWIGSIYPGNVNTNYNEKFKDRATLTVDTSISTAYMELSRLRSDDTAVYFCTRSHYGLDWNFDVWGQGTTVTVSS
T1 sequence (VL, as listed by the source, chain 2 of 2): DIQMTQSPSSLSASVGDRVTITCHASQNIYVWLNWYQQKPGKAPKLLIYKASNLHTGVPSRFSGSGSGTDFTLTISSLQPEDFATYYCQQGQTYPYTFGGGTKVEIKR
Experimental: After panning, phage infected bacteria were plated out and colonies picked into 96 well blocks. Clonal phage was then amplified and separated from bacterial cells via centrifugation.
Clonal phage were harvested as crude supernatants and screened via standard ELISAs. […] Prior to the addition of clonal phage, wells were incubated with blocking buffer and CD28 antigen or blocking buffer alone. Without washing or aspirating, clonal phage supernatants were then added to the wells and incubated for a short time. Wells were then washed followed by detection of bound phage using a horse radish conjugated anti-M13 antibody. Clonal phage of interest were then sent for sequence analysis.

Question: How did the “Anti-CD28 Fab (SEQ ID NOs: 202, 203) signal” value (“Anti-CD28 Fab” for short) turn out when SCSAGAHYPWPQCF [Phage-898] was run?
Answer: 1.16

Question: Which “Anti-CD28 Fab” value does the source give for SCKPGVANYWPWCL [Phage-917] here?
Answer: 2.29

Question: PDCQTILFKPWCVR [Phage-4] was tested. Which “Anti-CD28 Fab” value did it give?
Answer: 2.09

Question: For PDCHTILFKPWCVR [Phage-16], which “Anti-CD28 Fab” value is on record?
Answer: 1

Question: For TCSAGATYAWPFCL [Phage-913], which “Anti-CD28 Fab” value is on record?
Answer: 2.31

Question: With TCSAGATWSWPMCL [Phage-921] as the binder, how does the “Anti-CD28 Fab” value read?
Answer: 2.26

Question: How did the “Anti-CD28 Fab” value turn out when WCWDYKLWVPTQCP [Phage-7] was run?
Answer: 2.27

Question: For TCSAGAAYSWPACF [Phage-896], which “Anti-CD28 Fab” value is on record?
Answer: 1.89

Question: How did the “Anti-CD28 Fab” value turn out when DCPWLSGFSRPLLC [Phage-19] was run?
Answer: 1.27

Question: How did the “Anti-CD28 Fab” value turn out when WCWDYREWVPMTCP [Phage-8] was run?
Answer: 2.3

Question: Which “Anti-CD28 Fab” value does the source give for WCWYYREWVPMTCP [Phage-14] here?
Answer: 1.85

Question: How did the “Anti-CD28 Fab” value turn out when MCSAGAMYKWPLCL [Phage-912] was run?
Answer: 2.32

Question: How did the “Anti-CD28 Fab” value turn out when MCSAGAMYSWPLCL [Phage-918] was run?
Answer: 2.29

Question: LCSAGAMYPWPTCL [Phage-922] was tested. Which “Anti-CD28 Fab” value did it give?
Answer: 2.25

Question: Which “Anti-CD28 Fab” value does the source give for MCSAGAMYPWPTCL [Phage-959] here?
Answer: 2.04

Question: For LCSAGAMYSWPTCL [Phage-909], which “Anti-CD28 Fab” value is on record?
Answer: 2.39

Question: For LCSAGAMWPWPTCL [Phage-908], which “Anti-CD28 Fab” value is on record?
Answer: 2.39

Question: ACDTYFAGMINECF [Phage-5] was tested. Which “Anti-CD28 Fab” value did it give?
Answer: 0.92

Question: With TCSAGATYTWPKCF [Phage-891] as the binder, how does the “Anti-CD28 Fab” value read?
Answer: 1.87

Question: How did the “Anti-CD28 Fab” value turn out when TCSEGATYTWPWCF [Phage-954] was run?
Answer: 2.05

Question: For SCAAGASYAWPYCL [Phage-18], which “Anti-CD28 Fab” value is on record?
Answer: 1.49

Question: Which “Anti-CD28 Fab” value does the source give for ECHWSMWAVGHACF [Phage-9] here?
Answer: 1.77

Question: With WICDKSGSIMLCRA [Phage-17] as the binder, how does the “Anti-CD28 Fab” value read?
Answer: 0.91

Question: How did the “Anti-CD28 Fab” value turn out when TCAAGAHYPWPACL [Phage-904] was run?
Answer: 1.92

Question: How did the “Anti-CD28 Fab” value turn out when HCAAGAHYPWPACL [Phage-968] was run?
Answer: 2

Question: How did the “Anti-CD28 Fab” value turn out when TCAAGATWSWPACF [Phage-892] was run?
Answer: 2.23

Question: With TCSAGATWAWPLCF [Phage-902] as the binder, how does the “Anti-CD28 Fab” value read?
Answer: 2.31

Question: DCWWMFESYPGRCI [Phage-12] was tested. Which “Anti-CD28 Fab” value did it give?
Answer: 1.65

Question: YCMGHSHEHIWKCL [Phage-23] was tested. Which “Anti-CD28 Fab” value did it give?
Answer: 0.87

Question: TCAAGAAWGWPLCF [Phage-893] was tested. Which “Anti-CD28 Fab” value did it give?
Answer: 2.3

Question: YWYCSPSIVRCVLV [Phage-15] was tested. Which “Anti-CD28 Fab” value did it give?
Answer: 1.51

Question: With TCAAGAMWAWPVCL [Phage-911] as the binder, how does the “Anti-CD28 Fab” value read?
Answer: 2.32

Question: Which “Anti-CD28 Fab” value does the source give for TCAAGAMWHWPVCL [Phage-962] here?
Answer: 2.03

Question: Which “Anti-CD28 Fab” value does the source give for TCAAGATYLWPTCL [Phage-903] here?
Answer: 1.68

Question: With YWSCFQIPFTCFYF [Phage-1] as the binder, how does the “Anti-CD28 Fab” value read?
Answer: 1.44

Question: For WCWDYKLWVPMTCP [Phage-11], which “Anti-CD28 Fab” value is on record?
Answer: 2.51

Question: Which “Anti-CD28 Fab” value does the source give for YCAGMSTIQLWLKC [Phage-20] here?
Answer: 2.16

Question: With YCAGHSHEYLAKCE [Phage-24] as the binder, how does the “Anti-CD28 Fab” value read?
Answer: 0.86

Question: LCAAGASWPWPVCL [Phage-888] was tested. Which “Anti-CD28 Fab” value did it give?
Answer: 2.16

Question: For TCSAGAAYPWPLCL [Phage-895], which “Anti-CD28 Fab” value is on record?
Answer: 2.36

Question: Which “Anti-CD28 Fab” value does the source give for FMCLPQNPHPLCFK [Phage-3] here?
Answer: 0.84

Question: With GCQYPWAFDAMSCP [Phage-6] as the binder, how does the “Anti-CD28 Fab” value read?
Answer: 2.38

Question: MCAAGANYPWPQCL [Phage-920] was tested. Which “Anti-CD28 Fab” value did it give?
Answer: 2.28

Question: With YCAGHSPINIGKCL [Phage-10] as the binder, how does the “Anti-CD28 Fab” value read?
Answer: 1.49

Question: How did the “Anti-CD28 Fab” value turn out when TCSAGAHYPWPICL [Phage-900] was run?
Answer: 1.78

Question: Which “Anti-CD28 Fab” value does the source give for YCAGHAWQYINKCL [Phage-13] here?
Answer: 0.64

Question: Which “Anti-CD28 Fab” value does the source give for YCAGHMPQYEVKCL [Phage-21] here?
Answer: 0.22

Question: For SCAAGAMWPWPVCV [Phage-915], which “Anti-CD28 Fab” value is on record?
Answer: 2.29

Question: TCSAGATYEWPRCL [Phage-899] was tested. Which “Anti-CD28 Fab” value did it give?
Answer: 1.84

Question: For WECLKYTEANACTY [Phage-2], which “Anti-CD28 Fab” value is on record?
Answer: 1.55

Question: LCAAGATYPWPLCL [Phage-894] was tested. Which “Anti-CD28 Fab” value did it give?
Answer: 2.39

Question: How did the “Anti-CD28 Fab” value turn out when LCAAGATYPWPTCL [Phage-897] was run?
Answer: 1.71

Question: With MCAAGATYPWPACL [Phage-914] as the binder, how does the “Anti-CD28 Fab” value read?
Answer: 2.3

Question: LCAAGATYAWPLCL [Phage-945] was tested. Which “Anti-CD28 Fab” value did it give?
Answer: 2.13

Question: For YCAAGATYPWPLCL [Phage-952], which “Anti-CD28 Fab” value is on record?
Answer: 2.08

Question: Which “Anti-CD28 Fab” value does the source give for LCAAGATYPWPFCL [Phage-919] here?
Answer: 2.28

Question: MCAAGATYPWPLCL [Phage-970] was tested. Which “Anti-CD28 Fab” value did it give?
Answer: 1.99

Question: For LCAAGFKYPWPLCL [Phage-964], which “Anti-CD28 Fab” value is on record?
Answer: 2.02

Question: Which “Anti-CD28 Fab” value does the source give for LCAAGASYPWPTCL [Phage-967] here?
Answer: 2

Question: Which “Anti-CD28 Fab” value does the source give for TCAAGAAWPWPQCL [Phage-890] here?
Answer: 2.23

Question: How did the “Anti-CD28 Fab” value turn out when YCAGHTEEHYVKCM [Phage-22] was run?
Answer: 0.62

Question: Which “Anti-CD28 Fab” value does the source give for SCSAGAAYYWPWCL [Phage-901] here?
Answer: 1.9
